T1: Pig ASGR-1 (pig)
T1 construct: Expressed on HEK 293 cells or as membrane prep on beads; cDNA GenBank NM_001244458
T1 chain: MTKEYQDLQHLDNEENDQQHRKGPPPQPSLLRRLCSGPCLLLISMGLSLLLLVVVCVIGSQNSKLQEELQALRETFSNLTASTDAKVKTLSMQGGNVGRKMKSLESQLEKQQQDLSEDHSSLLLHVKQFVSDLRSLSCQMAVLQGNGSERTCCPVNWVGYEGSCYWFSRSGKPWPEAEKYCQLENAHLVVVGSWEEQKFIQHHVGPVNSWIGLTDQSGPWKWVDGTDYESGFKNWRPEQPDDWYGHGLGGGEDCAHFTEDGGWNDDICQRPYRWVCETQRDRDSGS

T2: Cyno ASGR-1 (cynomolgus monkey, UniProt P07306 1-291 (human entry))
T2 construct: Expressed on HEK 293 cells or as membrane prep on beads; cDNA from XP_005582755; also called cynomologus monkey ASGR-1
T2 chain: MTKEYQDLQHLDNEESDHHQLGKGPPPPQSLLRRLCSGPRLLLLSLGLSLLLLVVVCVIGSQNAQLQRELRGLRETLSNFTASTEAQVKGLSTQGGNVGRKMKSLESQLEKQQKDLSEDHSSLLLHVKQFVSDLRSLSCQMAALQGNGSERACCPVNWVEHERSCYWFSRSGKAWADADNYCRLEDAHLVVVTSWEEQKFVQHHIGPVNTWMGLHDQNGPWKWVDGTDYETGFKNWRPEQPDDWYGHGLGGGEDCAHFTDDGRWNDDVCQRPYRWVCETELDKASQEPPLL

T3: soluble human ASGR-1 carbohydrate binding domain (CBD; amino acid residues 154-281; N-terminal 6xHis tag) (human, UniProt P07306 154-281)
T3 construct: also called ASGR-1 CBD
T3 sequence: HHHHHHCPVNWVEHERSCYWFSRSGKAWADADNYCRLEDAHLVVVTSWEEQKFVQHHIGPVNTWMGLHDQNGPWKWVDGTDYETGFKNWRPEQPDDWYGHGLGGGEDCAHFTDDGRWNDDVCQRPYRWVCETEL

B1: 4H6 (antibody, V domains shown)
VH: QVQLVQSGAEVKKPGASVKVSCKASGYTFTDYYLHWVRQAPGQGLEWMGWIHPNSGGTNYAQKFQGRVTMTRDTSISTAYMGLSSLRSDDTAVYYCARDGTSSFDYWGQGTLVTVSS
VL: DIQMTQSPSSVSASVGDRVTITCRASQGISRWLAWYQQKPGKAPKLLIYGASSLQSGVPSRFSGSGSGTDFTLTISSLQPEDFAIYYCQQANSFPFTFGPGTKVDIK
notes: Tested as hybridoma supernatant at normalized concentration
B2: 72G9 (antibody, V domains shown)
VH: EVQLVESGGGLVKPGGSLRLSCAASGFTFSSYSMNWVRQAPGKGLEWVSSISGSSSYIYYADSVKGRFTISRDNAKNSLYLQMNSLRAEDTAVYFCARGGSRGFDPWGQGTLVTVSS
VL: B1 VL with V11L, G28S, S30T, R31S, W32Y, A34N, G50T, I85T, A91S, N92H
notes: as for B1
B3: 4B1 (antibody, V domains shown)
VH: QVQLQESGPGLVKPSETLSLTCSVSGDSISSYSWSWIRQPAGKGLEWIGRIYTSGSTNYIPSLKSRITMSVDTSKKQFSLKLSSVTAADTAVYYCARDLKSSGCLFFDYWGQGTLVTVSS
VL: DIQMTQSPSSLSASVGDRVTITCRASHTIRTYLNWYQQKPGKAPKLLIYAASSLQSGVPSRINGSGSGTDFTLTITNLQPEDFATYYCQQSYNISFTFGPGTKVDIK
notes: as for B1
B4: 12D2 (antibody, V domains shown)
VH: EVQLVESGGGLVKPGGSLRLSCAASGFTFSSYSMNWVRQAPGKGLEWVSSISSSSSYIYYADSVKGRFTISRDNAKNSLYLQMNSLRAEDTAVYYCARLGDYWGQGTLVAVSS
VL: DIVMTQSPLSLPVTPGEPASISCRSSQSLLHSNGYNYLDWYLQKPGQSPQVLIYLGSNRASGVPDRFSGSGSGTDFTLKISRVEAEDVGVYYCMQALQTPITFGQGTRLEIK
notes: as for B1
B5: 184E7 (antibody, V domains shown)
VH: QVQLVQSGAEVKTPGASVKVSCRASGYTFTSYNMHWVRQVPGQGLEWMGWINPNNGGSNYTQKFQGRVTMTRDTSISTAYMELSRLRSDDTAVYYCARKFGDWGQGTLVTVSS
VL: DIQMTQSPSSRSASIGERVTITCRASQGISNYLAWIQQKPGTAPKSLIYAASSLQSGVSSRFSGSGFGTDFTITISSVQREDFATYYCQQYNGYPFTFGHGTKVDIK
notes: as for B1
B6: 7E11 (antibody, V domains shown)
VH: QVQLVESGGGVVQPGRSLRLSCAASGFTFSSFGMHWVRQAPGKGLEWVAIIWHDGSNKYYADSVKGRFTISRDNSNNTLYLQMSSLRAEDTAVYYCARDLSMGGMDVWGQGTTVTVSS
VL: DIQMTQSPSSLSASVGDRVTIACRASQNIISYLNWYQQKPGKAPKFLIYTASSLQSGVPSRFSGSGSGTDFTLTISSLQPEDFAIYYCQQTYSTPLTFGGGTKVEIK
notes: mAb
B7: 5E5 (antibody, V domains shown)
VH: QVQLVESGGGVVQPGRSLRLSCAASGFTFSNYVMHWVRQAPGKGLEWVAVIWYDGSNKYYADSVKGRFTISRDNSKNTLYLQMNSLRAEDTAVYYCTREVYSSGWYDYGMDVWGQGTTVTVSS
VL: DIQMTQSPSSLSASVGDRVTITCRASQGIRNDLGWYQQKPGKAPKRLIYAASSLQSGVPSRFSGSGSGTEFTLTISSLQPEDFATYYCLQHYSYPRTFGQGTKVEVK
notes: mAb
B8: 7G4 (antibody, V domains shown)
VH: B7 VH with S30N, N84T, T97A, V100K, G104N
VL: B7 VL with K39R, F83S, Q90H, H91Q, V106I
notes: mAb
B9: 56E5 (antibody, V domains shown)
VH: QVQLVQSGAEVKKPGASVKVSCQASGYTFTGYHMHWVRQAPGQGLEWMGWINPNNNATNYAQKFQGRVTMTRDTSISTAYMELRRLRSDDTAVYHCARDGTSSFDYWGQGTLVTVSS
VL: B1 VL with S30R, R31K, G50A, I85T
notes: mAb
B10: 6G7 (antibody, V domains shown)
VH: QVQLVESGGGVVQPGRSLRLSCAASGFTFSSYGMHWVRQTPGKGLEWVAIISYVGKNKYYADSVKGRFTISRDNSKNTLYLQMNSLRAEDTAVYYCARRGNSYGGYGMDVWGQGTTVTVSS
VL: DIQMTQSPSSRSASVGDRVTITCQASQDISNYLNWCQQKPGKALKLLIYDASTLETGVPSRFSGSGSGTDFTFTISSVQPEDIATYYCQQYDNVPITFGQGTRLEIK
notes: mAb
B11: 48B12 (antibody, V domains shown)
VH: EVQLLESGGGLVQPGGSLRLSCAASGFTFSSYAMNWVRQAPGKGLEWVSAISGRGGNTFYADSVKGRFTISRDNSKNTLYLQMNSLRAEDTAVYYCAKRETYNWNYEGFDYWGQGTLVTVSS
VL: SYELTQPPSVSVSPGQTARITCSGDALPKKYAYWYQQKSGQAPVLVIYEDSKRPSGIPERFSGSSSGTMATLTISGAQVEDEADYYCNSTDSSGNHVVFGGGTKLTVL
notes: mAb
B12: 4A2 (antibody, V domains shown)
VH: QVQLVQSGTEVKKPGASVKVSCKASGYTFTNYDINWVRQATGQGLEWMGWMHPNSGNTGYAQKFQGRVTLTRNTSISTAYMELSSLRSEDTAVYYCASSSGWYYFDYWGQGTLVTVSS
VL: DIVMTQSPDSLAVSLGERATINCKSSQSILHSSNNNNYLAWFQQKPGQPPKLLLYWASTRESGVPDRFSGSGSGTDFTLTISSLQPEDVAVYYCQQYYNTPVTFGPGTKVGIK
notes: mAb
B13: 26C4 (antibody, V domains shown)
VH: B12 VH with T9A, T41S, H52N, K63R, L70M, S77N
VL: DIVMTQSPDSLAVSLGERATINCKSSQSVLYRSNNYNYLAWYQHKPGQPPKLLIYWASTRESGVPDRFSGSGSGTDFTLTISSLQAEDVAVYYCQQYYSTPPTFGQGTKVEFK
notes: mAb
B14: 25A4 (antibody, V domains shown)
VH: B12 VH with Q3L, T9A, K13R, H52Y, L70M
VL: DIVMTQFPDSLAVSLGERATIKCKSSQSVLYSSHNNNYLAWYQQKPGQPPKLLLYWASTRESGVPDRFSGSGSGTEFTLTISSLEAEDVAVYYCQQYYSTPPTFGQGTKVEIK
notes: mAb
B15: 29H8 (antibody, V domains shown)
VH: B12 VH with T9A, K12Q, H52N, K63R, L70M, T78A
VL: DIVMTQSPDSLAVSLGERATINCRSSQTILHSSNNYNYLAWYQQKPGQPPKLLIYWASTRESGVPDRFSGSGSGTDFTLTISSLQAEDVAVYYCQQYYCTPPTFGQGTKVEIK
notes: mAb
B16: 22G5 (antibody, V domains shown)
VH: EVQLLESGGGLVQPGGSLRLSCAASGFTFSSYAMNWVRQAPGMGLEWVSVISRSGGYTYYADSVKGRFTISRDNSKNTLYLQMNSLRAEDTAVYYCASRLAVAGSEAFDIWGQGTLVTVSS
VL: DIQMTQSPSSLSASVGDRVTITCRASQNISSYLNWYQQKQGKAPKLLIYAASSLQNGVPSRFSGRGSGTDFTLTISSLQPEDFATYYCQQSYRTPLFTFGPGTKVDFK
notes: mAb

Substitutions are numbered along the chain they refer to.

For one assay, the target named is T1, Pig ASGR-1. Put plainly: FACS on transfected HEK 293 cells or membrane preps on beads; Y = signal at least 2x irrelevant IgG. The protocol: (§1) Human ASGR-1-specific, ligand competing antibody samples were tested for binding to ASGR-1 from other species (cynomologus monkey ASGR-1, mouse ASGR-1, rat ASGR-1, dog ASGR-1, and pig ASGR-1) as well as to human ASGR-2 in FACS binding assays at normalized antibody concentrations. For cell-based assays, HEK 293 cells expressing the appropriate antigen of interest were mixed with antibody sample or controls, incubated for 1 hour at 4° C., and then washed twice. Cells with bound antibody were then incubated with Alexa Fluor® 647 IgG Fc fragment-specific detection antibody and 7-AAD viability stain for 15 minutes at 4° C., washed once and resuspended in FACS buffer. Samples were analyzed using a BD Accuri™ Flow Cytometer and an Intellicyt HyperCyt Autosampler. As a negative control, supernatants and controls were also screened against HEK 293 cells transfected with empty parental vector. […] For membrane-prep binding assays, ASGR-1 species specific membrane preps were used to coat LumAvidin® microspheres (beads) and tested for binding to selected hybridoma supernatants or controls. Briefly, ASGR-1 species specific membrane preps were incubated with streptavidin-coated LumAvidin® beads for 45 minutes in the dark at room temperature and washed twice. Beads were resuspeneded in FACS buffer containing Stabilguard®. Antigen-bound beads were then incubated with normalized antibody sample for 1 hour in the dark at room temperature, washed twice, incubated with Alexa Fluor® 488 IgG Fc fragment-specific detection antibody for 15 minutes in the dark at room temperature, washed once and finally resuspended in FACS buffer. Samples were analyzed using an Intellicyt iQue™ Screener Platform. FACS buffer supplemented with 1 mM Calcium Chloride was used in all steps. As a negative control, supernatants and controls were also screened against a non-ASGR-1 antigen membrane prep coated on the LumAvidin® beads.
As for B1, the binding result is recorded as “binds”.

On to B2, for which the binding result was “binds”.

Turning to B3, the binding result is “binds”.

With B4, the binding result is on record as “binds”.

Turning to B5, the binding result was “binds”.

For a further assay, the target named is T2, Cyno ASGR-1. Described as above. Here is the method:
as §1
As to B1, the binding result is “binds”.

Take B2: the binding result was “binds”.

On to B3, for which the binding result is on record as “binds”.

For B4, the binding result was “binds”.

Consider B5, for which the binding result was “binds”.

Another assay concerns the target T3, soluble human ASGR-1 carbohydrate …. Put plainly: Octet BLI, mAb on AR2G tips, 1:1 fit. The source says:
To quantitate the binding affinity of specific antibodies for ASGR-1 (either purified from hybridoma supernatants or made recombinantly), association and dissociation rates can be measured using a ForteBio Octet instrument. […] Experimental kinetic results were globally fit to a 1:1 binding model in order to determine the association and dissociation rate constants as well as the equilibrium dissociation constant. Association and dissociation times were chosen to ensure that curvature was present during association curves and measured dissociation levels dropped at least 5% from starting levels. All Octet buffers contained 10 mM Tris (pH7.5), 150 mM NaCl, 1 mM CaCl₂), 0.10 mg/ml BSA and 0.13% Triton X-100. Octet assays were run at 27° C. Because this assay only measures binding to the ASGR-1 CBD, antibodies that recognize epitopes partially or entirely outside the CBD and/or recognize ASGR-1 in the context of a native ASGR complex, for example, as could occur on cell membranes, may not score as positive in this assay.
(In general: In BLI a coated tip is dipped into the sample, and binding shifts an interference pattern.)
Usually Kd stands for the constant that tells how readily two partners part at equilibrium. Lower therefore signals a tighter complex. For B6, the equilibrium dissociation constant (Kd) was 1.6 nM.

Molecule B7 came in with a Kd of 7.6 nM.

In turn, B8 showed a Kd of 0.9 nM.

In turn, B9 registered a Kd of 0.5 nM.

With B10, the Kd was found to be 2 nM.

The molecule B11 had a Kd of 0.3 nM.

Turning to B12, binding was characterised by a dissociation constant (Kd) of 0.06 nM.

As for B13, the Kd is 0.4 nM.

With B14, the Kd was 0.03 nM.

As for B15, the affinity, expressed as Kd, was 1 nM.

With B16, the Kd came out at 1.4 nM.

The values are drawn from patent publication US20190248902A1 (published 2019).
